Usually IC50 stands for the point on the concentration scale where inhibition reaches its midpoint. The low end stands for greater potency, the high end for weaker potency. By Kd is commonly meant a measure of binding affinity in units of concentration.

The target of assay [1] is HLA-A*31:01. Briefly: IEDB peptide-MHC binding, purified MHC/competitive/fluorescence; ≥ and ≤ were set here for values at or beyond the usual limits of such assays. The settings on record: source organism: Homo sapiens.
The target in assay [2] is HLA-A*02:01. Briefly: IEDB peptide-MHC binding, purified MHC/direct/fluorescence; filed as Kd, often an IC50 or EC50 that approximates it; ≥ and ≤ were set here for values at or beyond the usual limits of such assays.
Assay [3] concerns the target HLA-A*02:03. Described as above.
Assay [4] concerns the target HLA-A*02:11. The assay is described as above.
Assay [5] deals with HLA-A*02:12. Described as above.
In assay [6] the target is HLA-A*02:16. The assay is described as above. The settings on record: source organism: Bacillus anthracis str. A0488.
For assay [7], the target named is HLA-A*02:19. Described as above.
The target in assay [8] is HLA-A*03:01. Described as above.
The target in assay [9] is HLA-A*23:01. The assay is described as above. The settings on record: source organism: Bacillus anthracis str. A0488.
Assay [10] addresses HLA-A*26:01. The description is as above. The settings on record: source organism: Bacillus anthracis str. A0488.
Assay [11] has as its target HLA-A*68:02. The description is as above. The settings on record: source organism: Bacillus anthracis str. A0488.
Assay [12] has as its target HLA-B*15:01. The description is as above.
Assay [13] deals with HLA-B*15:17. The description is as above. The settings on record: source organism: Bacillus anthracis str. A0488.
The target in assay [14] is HLA-B*18:01. The description is as above.
Assay [15] deals with HLA-B*27:03. Described as above. The settings on record: source organism: Bacillus anthracis str. A0488.
The target of assay [16] is HLA-B*39:01. Described as above. The settings on record: source organism: Bacillus anthracis str. A0488.
In assay [17] the target is HLA-B*46:01. The description is as above.
The target in assay [18] is HLA-B*57:01. The description is as above. The settings on record: source organism: Bacillus anthracis str. A0488.
Assay [19] concerns the target HLA-A*01:01. The assay can be described thus: IEDB peptide-MHC binding, purified MHC/competitive/fluorescence; filed as Kd, often an IC50 or EC50 that approximates it; ≥ and ≤ were set here for values at or beyond the usual limits of such assays. The settings on record: source organism: Bacillus anthracis str. A0488.
The target of assay [20] is HLA-A*11:01. The description is as above. The settings on record: source organism: Bacillus anthracis str. A0488.
The target in assay [21] is HLA-A*30:01. Described as above. The settings on record: source organism: Bacillus anthracis str. A0488.
In assay [22] the target is HLA-A*30:02. The description is as above. The settings on record: source organism: Bacillus anthracis str. A0488.
Assay [23] deals with HLA-A*66:01. The assay is described as above. The settings on record: source organism: Bacillus anthracis str. A0488.
The target in assay [24] is HLA-B*07:02. The description is as above. The settings on record: source organism: Bacillus anthracis str. A0488.
Assay [25] addresses HLA-B*08:01. The description is as above. The settings on record: source organism: Bacillus anthracis str. A0488.
The target in assay [26] is HLA-B*14:02. The description is as above. The settings on record: source organism: Bacillus anthracis str. A0488.
Assay [27] concerns the target HLA-B*27:05. Described as above. The settings on record: source organism: Bacillus anthracis str. A0488.
The target in assay [28] is HLA-B*40:01. The assay is described as above. The settings on record: source organism: Bacillus anthracis str. A0488.
For assay [29], the target named is HLA-B*44:02. Described as above. The settings on record: source organism: Bacillus anthracis str. A0488.
The target in assay [30] is HLA-B*51:01. The assay is described as above. The settings on record: source organism: Bacillus anthracis str. A0488.
Assay [31] deals with HLA-B*53:01. The description is as above. The settings on record: source organism: Bacillus anthracis str. A0488.
Assay [32] deals with HLA-B*58:01. The assay is described as above. The settings on record: source organism: Bacillus anthracis str. A0488.
Assay [33] deals with HLA-A*01:01. Briefly: IEDB peptide-MHC binding, purified MHC/direct/fluorescence; filed as Kd, often an IC50 or EC50 that approximates it; ≥ and ≤ were set here for values at or beyond the usual limits of such assays. The settings on record: source organism: Clostridium botulinum.
Assay [34] concerns the target HLA-A*02:06. Described as above. The settings on record: source organism: Clostridium botulinum NCTC 2916.
For assay [35], the target named is HLA-A*11:01. The description is as above. The settings on record: source organism: Clostridium botulinum.
For assay [36], the target named is HLA-A*24:02. Described as above. The settings on record: source organism: Clostridium botulinum.
The target in assay [37] is HLA-A*31:01. Described as above. The settings on record: source organism: Clostridium botulinum.
Assay [38] concerns the target HLA-A*69:01. The assay is described as above. The settings on record: source organism: Clostridium botulinum.
Assay [39] addresses HLA-B*07:02. The assay is described as above. The settings on record: source organism: Clostridium botulinum.
For assay [40], the target named is HLA-B*08:01. The description is as above. The settings on record: source organism: Clostridium botulinum NCTC 2916.
Assay [41] deals with HLA-B*08:02. The assay is described as above. The settings on record: source organism: Clostridium botulinum NCTC 2916.
Assay [42] addresses HLA-B*15:09. Described as above. The settings on record: source organism: Clostridium botulinum NCTC 2916.
Assay [43] deals with HLA-B*27:05. The assay is described as above. The settings on record: source organism: Clostridium botulinum.
Assay [44] has as its target HLA-B*40:01. The description is as above. The settings on record: source organism: Clostridium botulinum.
Assay [45] deals with HLA-B*44:02. The assay is described as above. The settings on record: source organism: Clostridium botulinum.
The target in assay [46] is HLA-B*58:01. The assay is described as above. The settings on record: source organism: Clostridium botulinum.
Setting [47] is: source organism: Bacillus anthracis str. A0488.
[48] abbreviates: source organism: Clostridium botulinum.
Where [49] appears, read: source organism: Clostridium botulinum NCTC 2916.

The sequence VTMGTGTFGR had an IC50 in assay [1] of 0.357 µM. That is a sub-micromolar value.

As for WDAYIPHYV, the dissociation constant (Kd) in assay [2] (setting [47]), in [3] (setting [47]), in assay [4] (setting [47]), in assay [5] (setting [47]), in assay [6] and in assay [7] (setting [47]) was not below 20 µM throughout. The Kd was not below 20 µM in assay [8] (setting [47]); not below 20 µM in [9]; not below 20 µM in assay [10]; not above 0.001 µM in assay [11]; not below 20 µM in assay [12] (setting [47]); not below 20 µM in assay [13]. Besides, the Kd in assay [14] (setting [47]) is not below 20 µM; in [15], not below 20 µM; in assay [16], not below 20 µM; in assay [17] (setting [47]), not below 20 µM; in assay [18], not below 20 µM; in assay [19], not below 5 µM. The equilibrium dissociation constant (Kd) in assay [20], in [21], in assay [22], in assay [23], in assay [24] and in assay [25] was not below 5 µM throughout. In addition, the dissociation constant Kd in assay [26] is not below 5 µM; in assay [27] it was not below 5 µM; in [28], not below 5 µM; in assay [29], not below 5 µM; in assay [30], 0.535 µM; in assay [31], not below 5 µM. The sequence also displayed a Kd in assay [32] not below 5 µM.

Regarding RVYINVVVK, the Kd in [33] is not below 20 µM; in assay [2] (setting [48]), 0.982 µM; in assay [3] (setting [49]), 0.599 µM; in assay [34], 0.263 µM; in assay [4] (setting [49]) it was 0.603 µM; in [5] (setting [49]), 0.697 µM. Moreover, the Kd is 2.15 µM in assay [7] (setting [49]); 0.241 µM in assay [8] (setting [48]); 0.484 µM in assay [35]; not below 20 µM in assay [36]; 0.231 µM in [37]; not below 20 µM in [38]. The equilibrium dissociation constant (Kd) in assay [39], in assay [40], in assay [41], in assay [12] (setting [48]), in assay [42] and in assay [14] (setting [48]) was not below 20 µM throughout. Moreover, the Kd in assay [43], in assay [44], in assay [45], in assay [17] (setting [48]) and in assay [46] was not below 20 µM each time.
